Publication PMC5150538, “Structural basis of myelin-associated glycoprotein adhesion and signalling” (Nature Communications, 2016)
Substitutions are numbered along the chain they refer to. Numbers in names are those of the source.

B1: MAG1–5 wt glycosylated (full extracellular segment of mouse myelin-associated glycoprotein) (domain or fragment, UniProt P20917 20-508, looked up)
chain: GHWGAWMPSTISAFEGTCVSIPCRFDFPDELRPAVVHGVWYFNSPYPKNYPPVVFKSRTQVVHESFQGRSRLLGDLGLRNCTLLLSTLSPELGGKYYFRGDLGGYNQYTFSEHSVLDIVNTPNIVVPPEVVAGTEVEVSCMVPDNCPELRPELSWLGHEGLGEPTVLGRLREDEGTWVQVSLLHFVPTREANGHRLGCQAAFPNTTLQFEGYASLDVKYPPVIVEMNSSVEAIEGSHVSLLCGADSNPPPLLTWMRDGMVLREAVAKSLYLDLEEVTPGEDGVYACLAENAYGQDNRTVELSVMYAPWKPTVNGTVVAVEGETVSILCSTQSNPDPILTIFKEKQILATVIYESQLQLELPAVTPEDDGEYWCVAENQYGQRATAFNLSVEFAPIILLESHCAAARDTVQCLCVVKSNPEPSVAFELPSRNVTVNETEREFVYSERSGLLLTSILTIRGQAQAPPRVICTSRNLYGTQSLELPFQGAHR
modifications: N-linked glycans (made in GnTI- cells); C-mannosylation on W22
notes: Myelin-associated glycoprotein (MAG), mouse, Ig domains 1-5, residues 20-508 (UniProt numbering, starts after the signal peptide); template mouse S-MAG cDNA; Vector pUPE107.03 with a cystatin secretion signal peptide and a C-terminal His6-tag; also called wt MAG1–5; MAG full ectodomain; source: HEK293 GnTI- EBNA1 cells in suspension, transient, secreted; purified (Ni-NTA, SEC)
B2: MAG1–5 N406Q deglycosylated (domain or fragment, mouse, UniProt P20917 20-508, looked up)
chain: B1 chain with N387Q
modifications: N-linked glycans trimmed down to single N-Acetylglucosamines by Endo-Hf
notes: Myelin-associated glycoprotein (MAG), mouse, Ig domains 1-5, residues 20-508 (UniProt numbering), with N406Q; also called deglycosylated MAG1–5 N406Q; source: HEK293 GnTI- EBNA1 cells in suspension, transient, secreted; purified (Ni-NTA, SEC); deglycosylated with Endo-Hf
B3: MAG1–5 wt deglycosylated (domain or fragment, mouse, UniProt P20917 20-508, looked up)
chain: B1 chain
modifications: N-linked glycans trimmed down to single N-Acetylglucosamines by Endo-Hf; C-mannosylation on W22
notes: Myelin-associated glycoprotein (MAG), mouse, Ig domains 1-5, residues 20-508 (UniProt numbering, starts after the signal peptide); template mouse S-MAG cDNA; Same construct as m1 after Endo-Hf treatment; also called deglycosylated MAG1–5; deglycosylated wt MAG1–5; source: HEK293 GnTI- EBNA1 cells in suspension, transient, secreted; purified (Ni-NTA, SEC); deglycosylated with Endo-Hf overnight at …
B4: MAG1–5 N406Q glycosylated (domain or fragment, mouse, UniProt P20917 20-508, looked up)
chain: B1 chain with N387Q
modifications: N-linked glycans (made in GnTI- cells), lacks the N-linked glycan on residue 406
notes: Myelin-associated glycoprotein (MAG), mouse, Ig domains 1-5, residues 20-508 (UniProt numbering), with N406Q; also called N406Q mutant; source: HEK293 GnTI- EBNA1 cells in suspension, transient, secreted; purified (Ni-NTA, SEC)
B5: Myelin-associated glycoprotein (MAG, Siglec4a): N406Q (protein)
parent chain: MIFLATLPLFWIMISASRGGHWGAWMPSTISAFEGTCVSIPCRFDFPDELRPAVVHGVWYFNSPYPKNYPPVVFKSRTQVVHESFQGRSRLLGDLGLRNCTLLLSTLSPELGGKYYFRGDLGGYNQYTFSEHSVLDIVNTPNIVVPPEVVAGTEVEVSCMVPDNCPELRPELSWLGHEGLGEPTVLGRLREDEGTWVQVSLLHFVPTREANGHRLGCQAAFPNTTLQFEGYASLDVKYPPVIVEMNSSVEAIEGSHVSLLCGADSNPPPLLTWMRDGMVLREAVAKSLYLDLEEVTPGEDGVYACLAENAYGQDNRTVELSVMYAPWKPTVNGTVVAVEGETVSILCSTQSNPDPILTIFKEKQILATVIYESQLQLELPAVTPEDDGEYWCVAENQYGQRATAFNLSVEFAPIILLESHCAAARDTVQCLCVVKSNPEPSVAFELPSRNVTVNETEREFVYSERSGLLLTSILTIRGQAQAPPRVICTSRNLYGTQSLELPFQGAHRLMWAKIGPVGAVVAFAILIAIVCYITQTRRKKNVTESSSFSGGDNPHVLYSPEFRISGAPDKYESEKQRLGSERRLLGLRGESPELDLSYSHSDLGKRPTKDSYTLTEELAEYAEIRVK
B6: Myelin-associated glycoprotein (MAG, Siglec4a): Endo-Hf (protein)
parent chain: B5 parent chain

Experiments:
[1] = target: the molecule itself; assay: AUC; sedimentation equilibrium, SEC buffer (150 mM NaCl, 20 mM HEPES pH 7.5), 20 °C, 7,500, 14,000 and 20,000 r.p.m., global analysis of several concentrations, speeds and wavelengths; monomer to dimer
[2] = target: the molecule itself; assay: SAXS; ESRF BM29, SEC buffer (150 mM NaCl, 20 mM HEPES pH 7.5), 20 °C (277 K for deglycosylated MAG1–5 N406Q), single concentration of 33-52 μM for each sample; monomer to dimer
[3] = target: the molecule itself; assay: SEC; Superdex200 Hiload 16/60, 150 mM NaCl, 20 mM HEPES pH 7.5
[4] = SAXS; conditions: glycan lost; control: glycosylated wt MAG1–5
[5] = size exclusion chromatography; conditions: glycan lost; control: wt and other MAG constructs
[6] = sedimentation equilibrium AUC, monomer-dimer fit; conditions: glycan lost; control: glycosylated wt MAG1–5

Row | Protein | Kd [1] | stoichiometry N [1] | oligomerisation, other: Rg [4] | also measured
1 | B1 | 382 µM | 2 | – | fraction of dimer (OLIGOMER fit, monomer:dimer ratio at 52 μM) [2]: 0.28 fraction
2 | B2 | – | – | – | binding result [2]: binds
3 | B3 | 167 µM | 2 | – | –
4 | B4 | – | – | – | binding result [3]: binds
5 | B5 | – | – | increases, 7.3 vs 6.8 | oligomerisation [5]: increases
6 | B6 | – | – | increases, 7.3 vs 6.8 | oligomerisation, KD [6]: increases, 167 vs 382
